What was measured:
Experiment in all cases: ITC; Vps4 MIT domain (3 uM in PBS) in the cell, titrated with 19 injections of 10 ul of Vps2/24/46 or Vps20/32/60 (33 uM in PBS) at 2-min intervals; 25°C; ITC200; fits: One Set of Sites or Sequential Binding Sites
[1] = target: Heimdallarchaeota_LC_3 Vps4 MIT domain (Heimdallarchaeota_LC_3)
[2] = target: Lokiarchaeum_GC14_75 Vps4 MIT domain (Lokiarchaeum_GC14_75)
[3] = target: Odinarchaeota_LCB_4 Vps4 MIT domain (Odinarchaeota_LCB_4)

| dH1 (Sequential Binding Sites, site 1) [1] [kcal/mol] | dH2 (Sequential Binding Sites, site 2) [1] [kcal/mol] | dH [3] [kcal/mol] | Substance | further results |
| --- | --- | --- | --- | --- |
| 2780 | -2310 | – | Heimdallarchaeota_LC_3 Vps20/32/60 (natural protein) | – |
| – | – | 392 | Odinarchaeota_LCB_4 Vps2/24/46 (natural protein) | – |

The next lines start with the substance.

| Substance | dH1 (Sequential Binding Sites, site 1) [1] [kcal/mol] | dH2 (Sequential Binding Sites, site 2) [1] [kcal/mol] | dH [3] [kcal/mol] | further results |
| --- | --- | --- | --- | --- |
| Heimdallarchaeota_LC_3 Vps2/24/46 (natural protein) | -473 | 931 | – | – |
| Lokiarchaeum_GC14_75 Vps2/24/46 (natural protein) | – | – | – | dH1 (Sequential Binding Sites, site 1) [2]: -121 kcal/mol; dH2 (Sequential Binding Sites, site 2) [2]: 422 kcal/mol |
| Lokiarchaeum_GC14_75 Vps20/32/60 (natural protein) | – | – | – | dH [2]: 1420 kcal/mol |
| Odinarchaeota_LCB_4 Vps20/32/60 (natural protein) | – | – | 331 | – |

— paper PMC7240154
